# Experiments:
# [1] = biological target: GiTim17 synthesized in vitro (PURExpress) in lecithin liposomes (Giardia intestinalis); assay: native gel or EMSA; 35S-labelled GiTim17 translated in vitro with lecithin liposomes; pellet washed with 2 M urea in 50 mM sodium phosphate pH 8; Blue Native PAGE with 2% digitonin, 4-16% Bis-Tris gel
# [2] = biological target: the molecule itself; assay: non-reducing SDS-PAGE; GiTim17 in vivo in Giardia; ~40 kDa complex on nonreducing SDS-PAGE, no reducing agent
Molecule,stoichiometry N [1],stoichiometry N [2]
GiTim17 synthesized in vitro (PURExpress) in lecithin liposomes (natural protein),2,
"Giardia intestinalis Tim17 protein (GiTim17), in vivo in Giardia (natural protein, UniProt D3KGG5 1-180, looked up, Tim17 family protein of Giardia intestinalis, GL50803_10452, a protein of 180 amino acids, predicted mass 19.4 kDa; also called GL50803_10452) MLRLWQEYVQEDDVLACLSVLDEDCQRAVQVIERLDVEGGTPEMQTHERVCTSFSHGLIRTALRRFPLALSKNLGRVQSMLNAFNHALQETSTESFSHAISSSCGSLVSSLCNNPSAGAAMGALPNLRKSPGAALSALLMGPTIAHLVGSVYSLGLNAYHICKLELRDLRLHRAEMDKKA",,~2

# From publication PMC6200312, “A Single Tim Translocase in the Mitosomes of Giardia intestinalis Illustrates Convergence of Protein Import Machines in Anaerobic Eukaryotes” (Genome Biology and Evolution, 2018)
